In paper doi:10.1101/2021.04.12.439584 (bioRxiv, 2021):

B1: LmForminA FH2 domain (695aa-1092aa) (domain or fragment)
chain: ASGAAAPMLNSSTTRNVPINGAVGDSDDAIFKAARPIELTAGARDKLLALFPKAAPKHVIEEDEATSRVQRILDVNRDRNVGIVLKFIRLPIQQIEASVRTFDTLTLGEERISGLLKIIPTSDDFEAIARAQKEHGGPWKRAEEQQLPQAVRFFLMTQRIDHYAERIHAWSLRYELHGRLEYLEQKLSKADKAIDATFASPSLPDLLYFLLEVSNFLNAGSRFQGAKGFPITQLPQIMDFKTTDGKGTLLQYVAEILDTVNPHLQAISSELMPAVDEGRDIDVASIEQELKKLRGRLQKCKHLIEQLKNDVRWTNVLGKFIYRSLPELERVEKLAESINGKAERLQEFLCEKKETFSLNEVLRVLSNFCKRYEQEREKQRLRQERQDRMEDNKQRRQS
B2: LmForminB FH2 domain (714aa-1149aa) (domain or fragment)
chain: KPKPQYTGPRLKTFFWKKILKPSGIWAASDTDDVRRAVIDESFMLKLFKLKAVAQPSAAEGAAEKSEQERRSQLRSNVFTGQRLQNMGIALKRVQVPVEVLCKALITCDSAVLPPERREMLTAALPTTEDVTALTAEKQAGRSVWTEVETYLYTAATTVKDVRERLQLWTAAEELEDTVQSISSLLSSVDAAVCAITHRNGRFARMMRIILAFGNHLNRGTPHADAEGFRLESLNQLNFVKSSDGKTTVLMALVVSLMDSGRGRSERGGGTTSAPGADNDDDDVRNALRFVEDVSCVRAVANSPLQDMGQQVSQLNFTLQRMRRVVEEAKDTKAWYDKRLPSVKAEEVPDALPGLLREAVDRYLATVGQIALRYQQLRDDVSAMMATYGEDPNADETVIWGYVLQFSKDVQRCVDTVAAVHLTKRRLMGMPEATEQ

Target: Rabbit skeletal muscle actin (rabbit, UniProt P68135 1-377)
Experiment: co-sedimentation

Binder	Kd [nM]
B1	1840
B2	200
